# Paper doi:10.1101/2020.06.08.141267 (bioRxiv, 2020)
# Target: T1, receptor-binding domain (RBD) of the SARS-CoV-2 spike (S) protein (SARS-CoV-2, UniProt P0DTC2)
# T1 construct: not shown: His6, C-terminal, kept
# Assay: BLI
# Details: both partners purified
binder,measurement,value
"CC12.1 Fab (Fab, V domains shown, also called Fab CC12.1) VH: EVQLVESGGGLIQPGGSLRLSCAASGLTVSSNYMSWVRQAPGKGLEWVSVIYSGGSTFYADSVKGRFTISRDNSKNTLYLQMNSLRAEDTAVYYCARDLDVYGLDVWGQGTTVTVSS VL: DIVMTQSPSFLSASVGDRVTITCRASQGISSYLAWYQQKPGKAPKLLIYAASTLQSGVPSRFSGSGSGTEFTLTISSLQPEDFATYYCQQLNSYPPKFTFGPGTKVEIK",Kd,17 nM
